Reference: article PMC4551927 (Nucleic Acids Research, 2015)

B1: Mycobacterium tuberculosis VapB30 antitoxin (natural protein)
chain: MALSIKHPEADRLARALAARTGETLTEAVVTALRERLARETGRARVVPLRDELAAIRHRCAALPVVDNRSAEAILGYDERGLPA
B2: Mycobacterium tuberculosis VapC30 toxin (natural protein)
chain: MMVIDTSALVAMLSDEPDAERFEAAVEADHIRLMSTASYLETALVIEARFGEPGGRELDLWLHRAAVDLVAVHADQADAARAAYRTYGKGRHRAGLNYGDCFSYGLAKISGQPLLFKGEDFQHTDIATVALP

Key:
[1] = target: B2; assay: crystal structure
crystal structure = target: the molecule itself; assay: crystal structure

Binder	binding result [1]	binding result (crystal structure)
B1	binds	binds
B2	–	binds
